Earlier results on 4 substances are cited in article PMC2871139.

Like-named read-outs stand apart in the source and are kept apart here.

Series [1] has as its target A1 (UniProt Q07440).
For series [2], the target named is A1 (UniProt Q07440). This is another data set of the same source.
The target in series [3] is A1 (UniProt Q07440). This is another data set of the same source.
Series [4] addresses A1 (UniProt Q07440). The source holds these as a separate data set.

Chain of UniProt Q07440 (Q07440 whole entry): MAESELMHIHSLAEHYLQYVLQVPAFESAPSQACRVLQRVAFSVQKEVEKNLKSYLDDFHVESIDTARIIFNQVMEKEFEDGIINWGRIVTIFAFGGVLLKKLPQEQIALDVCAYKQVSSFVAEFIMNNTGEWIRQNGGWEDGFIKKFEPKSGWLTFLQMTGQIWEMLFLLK

Take Bid BH3 (from UniProt P70444): the Kd with A1 [1] was under 3 nM. For the substance Bmf BH3 (from UniProt Q91ZE9), the Kd with A1 [2] was 180 nM. Take Bak BH3 (from UniProt O08734): in the series with A1 [3], the Kd was under 3 nM. Take Puma BH3 (from UniProt Q9BXH1): the Kd in the series with A1 [4] was under 3 nM.
